Experimental data published in article PMC4188797.

Target: metabotropic glutamate receptor 1 splice variant mGluR1a (endogenous, rat brain) (rat (endogenous in rat brain)), P23385
Experiment: SDS-PAGE and immunoblot of dimer bands in subcellular fractions
Conditions: remark: other sources report otherwise

B1: metabotropic glutamate receptor 1 splice variant mGluR1a (endogenous, rat brain), P23385 19-1199 (receptor)
chain: LPRMPDRKVLLAGASSQRSVARMDGDVIIGALFSVHHQPPAEKVPERKCGEIREQYGIQRVEAMFHTLDKINADPVLLPNITLGSEIRDSCWHSSVALEQSIEFIRDSLISIRDEKDGLNRCLPDGQTLPPGRTKKPIAGVIGPGSSSVAIQVQNLLQLFDIPQIAYSATSIDLSDKTLYKYFLRVVPSDTLQARAMLDIVKRYNWTYVSAVHTEGNYGESGMDAFKELAAQEGLCIAHSDKIYSNAGEKSFDRLLRKLRERLPKARVVVCFCEGMTVRGLLSAMRRLGVVGEFSLIGSDGWADRDEVIEGYEVEANGGITIKLQSPEVRSFDDYFLKLRLDTNTRNPWFPEFWQHRFQCRLPGHLLENPNFKKVCTGNESLEENYVQDSKMGFVINAIYAMAHGLQNMHHALCPGHVGLCDAMKPIDGRKLLDFLIKSSFVGVSGEEVWFDEKGDAPGRYDIMNLQYTEANRYDYVHVGTWHEGVLNIDDYKIQMNKSGMVRSVCSEPCLKGQIKVIRKGEVSCCWICTACKENEFVQDEFTCRACDLGWWPNAELTGCEPIPVRYLEWSDIESIIAIAFSCLGILVTLFVTLIFVLYRDTPVVKSSSRELCYIILAGIFLGYVCPFTLIAKPTTTSCYLQRLLVGLSSAMCYSALVTKTNRIARILAGSKKKICTRKPRFMSAWAQVIIASILISVQLTLVVTLIIMEPPMPILSYPSIKEVYLICNTSNLGVVAPVGYNGLLIMSCTYYAFKTRNVPANFNEAKYIAFTMYTTCIIWLAFVPIYFGSNYKIITTCFAVSLSVTVALGCMFTPKMYIIIAKPERNVRSAFTTSDVVRMHVGDGKLPCRSNTFLNIFRRKKPGAGNANSNGKSVSWSEPGGRQAPKGQHVWQRLSVHVKTNETACNQTAVIKPLTKSYQGSGKSLTFSDASTKTLYNVEEEDNTPSAHFSPPSSPSMVVHRRGPPVATTPPLPPHLTAEETPLFLADSVIPKGLPPPLPQQQPQQPPPQQPPQQPKSLMDQLQGVVTNFGSGIPDFHAVLAGPGTPGNSLRSLYPPPPPPQHLQMLPLHLSTFQEESISPPGEDIDDDSERFKLLQEFVYEREGNTEEDELEEEEDLPTASKLTPEDSPALTPPSPFRDSVASGSSVPSSPVSESVLCTPPNVTYASVILRDYKQSSSTL
Q: How did the stoichiometry N turn out when B1 was run?
A: Its stoichiometry N is 2.
